Test: label from the status in PepcDB records

| Sequence | protein production |
| --- | --- |
| MGDFDPNKPVVISEFSPKEGGLGTRMLLYGENFGSDISKIKVTIGGQDSKVVGAKGKSLYCVVPAKAYDGDIKLSILNDEGEEIANTEANEKFVYQKKMLVTTFLGTMYDGNTKYDLKDGPFDDCGGFGGAVWLSFDPKNHNHLYLVGEQHPTRLIDFEKEYVSTVYSGLSKVRTICWTHEADSMIITNDQNNNDRPNNYILTRESGFKVITELTKGQNCNGAETHPINGELYFNSWNAGQVFRYDFTTQETTPLFTIQDSGWEFHIQFHPSGNYAYIVVVNQHYILRSDYDWKTKRLTTPYIVCGQQGAKDWVDGVGKKARMHAPRQGTFVKNPAYKGSSDEYDFYFCDRENHCIRILTPQGRVTTFAGRGSNGTSGYNDGDLRQEARFNHPEGIVYDEERECFFIGDRENRRIRKIGLEHHHHHH | failed |
| MGDMIFGILTWLPGLILAITLHEAAHGYVASALGDQTARLLGRVTLNPIRHVDPFGTLVLPGLLFLVGAPFLFGWAKPVPVDYRNLRHPKRDMAWVALAGPGMNIFLAVVSAAALHGALLLPDPAADWLITTLQKSVLINCVLAVFNMIPVPPLDGGRVLVGILPMRAAVVVARMERVGMLALIGVIFLLPLALSQFGVDFDPFSRIIGPVVRALLGAVYTTAGIPLF | failed |
| MGDRIAVQAEPTPAKLRGAASGDLVMRKVCMQQWRPTAPRGEYVSTEWSAGYVTDVNYTFGYYGELNPLRCRLPLLTVGRHAPKIENACELGFGQGLSVSIHAAAQPGINWYGTDFNPSQAAFAAEMVRLSGAEAKLYDEAFAEFCNRKDLPDFDFIGLHGIWTWISDQNRHVLVDFIRRKLRPGGVLYISYNTLPGWSSSAPIRHLMKRHADVMGAPGQGVIGQTDAALNFIDQFLALDPLYAKVNPGAVERLKQVKAQDRKYLAHEYMNRDWHPMYFADVENWLGDAKVGFACSAHVLDNLYDLNMTPQQTEFMRDVSDVSLRETIRDFCMNQQFRRDYWVRGVRALIGHEQVAAMREERVVMTVAQADLPTKVRGVIGEATLNDDVYQPLFEILLDHKPHSVLELETHLASKSLHFGQLSSALTILLGLGVITTAAAAQDVSKAKARTLALNKTIARRSLSVGDIAYFASPITGGGITASRFAQLFWLSRQNGGKTAEDWASFAYQVLQGQGQAIIKDGATLQGEDNLTELRAQATHWGAHVLPIWNALGV | failed |
| MGEKKGLSFFEKYLSLWVALCIVLGILIGKFMPSLPRTLSKLTIANVNMAIAVLIWAMIYPMMVKVDFSAIKRVHKGQMLKGLIVTWVTNWLIKPFSMFLISSFFIGTIFSMKLGLIDPSLAKEYIAGAILLGAAPCTAMVFVWSYLADGDPLYTLVQVATNDIIILFAFAPIVGFLMGLNKVPVPYDTLLLSVVLFVVIPLSAGYLSRRYILKTKGHKWFEQEFLPKLSTISIVGLLLTLILLFSFQGEIILENPLHIALIAIPLTIQTYFIFAIAYGWAWIWKLPHKVAAPASFIGASNFFELAVAVAIALFGLDSGAALATVVGVLEEVPIMLSLVWIANKTRHFFTAKFETGSGSKAWALLRNSLPYYPYCPNHEDIRKDTYKQMNLYPVLFFLG | failed |
| MGEMTLAFIEEQYKELDNLNNKENPAVLTRNTATGELLVRKIIPISFAPVLEELKKLSSNYLPKIEVMIPNGSELIVYEEYINGKNLADLMKVNAPFDADEVTGLMLMLSDALTELHTNAIIHRDIKPSNIMISSDGVLKLIDFDASRVFEVGKNQDTVNLGTIGYAAPEQYGYSQTDARSDIYSIGVLMLELLRGKNNLPDKETATSLEKIAMQAASFDPEQRFQTIQEFRTAIKNDSLGPTFVSELTNLSDFATIEDSADEINWATSTDEYEKDFIPWYKHIPGFRTGHTWKMVVAVLGYIFMAFGLFTPPTEGVKMNNIENFFANFFLIFPAFIIFTNLCGIWSKLPLLKSSSKGTRKVGIVVYIFVCIMIYGIYTEIFS | failed |
| MGEYCEKDFRSLQRCAEMNNIRIFKFLVILYSLLLIASSFVYYYREDIYIRPESYFYLLTLAVGVTFAQIIFFGRNSRSEVKFLIFVEVLLVALSFTLTQQALYKTVLGRDPWFHWILVEEIVKRGSIPPYEQIPIPYVRMPNFHLVIASGIVLTNLSYKWAQVLFAGFPTLILLMLVAFLYSKKLFDDQVGLVSILLVAISDNVLDMVGKNIVPNTLGVALAFLIFYLIYFREYHNLMIKFLSVLVAIALAFMHTVSLTFLIWQIFVISILSLILKDKSAKFYLAHFAFLIVSALFVWGIYSGFYLKSLVIIFKQLFIYGFDIERYEAKLPTTFLDAVIARSGMVLYFAIAGIITFYLLVKTLKRRAFGIKLSTLSSILATISILAGAVSFLTPALSGIAHRFWYYGEVLSSAFVGSVLANLYERKKVIIVFNLIFICALSMLMFKANVANDDNPLVPYYSQRTGWHDSEIEAGKFVISKQGNIPIASDWDYSWNLRYLKTSLMASGALKDINRVTPKTFEEVKNCNCLFVFRKDLLENRLFYLGGRWTQTPHLPLSTLNLVIKELSENEGIIYNNNNILIMHLV | failed |
| MGEYYHATVNGVVEYGAFVDLSEHVSGLIHESTYSGDPDLAVDDDVIVHLSAVRDNGDLSFEFVDPEEYRTEQRSLEHHHHHH | failed |
| MGFLDKVEKSIEGAVSGVFARAFRGEVEPVEIAGRLQRELDSEAQILSRDKSLVPNDFVVRLSSRDYERLVPYTKTLNAEIIPTLRDHASERHYVFNGPIHIRYDLDDALPVGKFTVLTGENHAKAVSDRRAPLVLEVDGVRHPLTPPGLTIGRGSDADIRINDPGISRLHARINVWPQGNDIGLSIEDLDSTNGVTVNGVKVTSTELGDGSRIEIGSTRMLVHSPTRI | failed |
| MGFTDSIREHVREHRTGMVHDLMFAVVWVAIVNFLFSAVFTDAPSWAFYMFMLAGIPAYFGFFFSLSMARAQQDSQ | failed |
| MGFTELNSVEHYIIHQISGVNLNDAQCKNQVSEPQATYALQWQFKSSEQLGRDVNEVLVESELVKALIRLNPEIEANPHLADEVIHKLRAILISVNQVGLVKANEEFFAWMTGEKTMPFGENNRHVPVKLIDLEDLTRNGYVVTNQFRIHHRETKIPDVVLMINGIPVVVGEAKTPIRPSVSWLDGAHEVHNIYENAVPQLFVPNILSFATEGKELFYGAIRCPLEFWAPWRTEEDDNSKGIGQVSKALGLTEIGKELIDLLSPVRLLDIMRNFSLFTTNKKKQRIKVIPRFQQYEGANKIVERVIEGKIKKGLIWHFQGSGKSLLMVFAAQKLRRTAQLKSPTVIVLVDRTDLDTQISGTFNAADVANVESTDSIKELQRMLERDTRKIIISMIHKFRDAKPNMNTRENIIVLVDEAHRTQEGDLGRQMRAALPNAFLFGLTGTPVNKADKNTFWAFGAEEDKGGYMSRYTFHDSIRDEATLPLHFEPRLVDVHVDKEALDKAFKDFKESAALSDEEADALNQKSAKMSAFLKSPERVEKIVEDIAIHFMDKVEPHGFKAMVVTPDREACVQYKEELDKHFPESASKVVISTSANDDFEFKQKWGVDKSQQEKLVDEFNDEKSDLKFLVVTAKLLTGFDAPICQTMYLDKSIKDHTLLQAICRTNRLYPNKTFGCIVDYFGVFDDAAKALEFDEESVQQVISNLSELRSKLPQAMQDTLAHFIGVDRSLEGFEGLEAAQNAIGDNDKKDAFALDFKYLAKLWESLSPDSVLDEYNEDYKWLAQVYESVKPASDNIGKLLWLALGAQTTQLIHDNVHVGDVHNLEEFVLDADVIENIFNNPDPRKIKQLEKELAKRFKDRGDLPVFKSLSERLEELRDKAEKGLIASIDFVKELCKIAKETVQAEKDLDDELQEKTPQAALTDLFLELKDDQTPAVVERIVTDIDAIVRIVRFPGWQTTTGGEREVQKSLRKALLKYKLHTDQTLFDRAYGYIKEYY | failed |
| MGGATSGAVSSLNSRLALAHTPLLNTPQKPVDCRPHRTRTSDSAPMELHYRITPAHTEAWIAEPLKQELLKDDQQHVRAMSTFARWQSRFIGPVMFTLCLIGGCLSIYFPERNFTAEKVIAMVAFALIFIPLWWRFSGRWIKHLQARIAATPIKPQAPLRGLSQRLIETRLRAVEGTYCLNFDDQGFTLLNARGGQSSLAWKQIASVQEIPDFYLVADADMERQGVACFIAKHTDLMPTEAYQQGLQAFLSQCPAALPAH | failed |
| MGGDLRKCSFIKLEAHQNRVMTCVWCNKKGLLATSGNDGTIRVWNVTKKQYSLQQTCVFNRLEGDAEESLGSPSDPSFSPVSWSISGKYLAGALEKMVNIWQVNGGKGLVDIQPHWVSALAWPEEGPATTWSGESPELLLVGRMDGSLGLIEVVDVSTMHRRELEHCYRKDVSVTCIAWFSEDRPFAVGYFDGKLLMGTKEPLEKGGIVLIDAHKVKTIFFMLAFLFCLVFCVYVF | failed |
| MGGEDDELKGLLGLPEEETELDNLTEFNTAHNKRISTLTIEEGNLDIQRPKRKRKNSRVTFSEDDEIINPEDVDPSVGRFRNMVQTAVVPVKKKRVEGPGSLGLEESGSRRMQNFAFSGGLYGGLPPTHSEAGSQPHGIHGTALIGGLPMPYPNLAPDVDLTPVVPSAVNMNPAPNPAVYNPEAVNEPKKKKYAKEAWPGKKPTPSLLI | not failed |
| MGGFRFHQYQVVGRALPTENDEHPKIYRMKLWGRNEVCAKSKFWYFMRKLKKVKKSNGQMLAINEIFEKNPTTIKNYGIWLRYQSRTGYHNMYKEYRDTTLNGGVEQMYTEMASRHRVRFPCIQIIKTATVPAKLCKREITKQFHNSKIKFPLVFRKVRPPSRKLKTTYKASKPNLFM | failed |
| MGGLFVTPAKAVKTTNYAEEIAALQPGTTPEEIMKSASQIAKQQHVKQDVILKQFYKEITADKAEGDRLAKESGMSIMGGSSGTKKLPTSAKGNIYYTNSYTAYYNHGHVGMYSAADKIVESVPSDGVRQIAYNARDVEDNSIVQTVSVSSSQKTAAADWAVSKVGDPYSFNFVNNRNTGHDGAKNCSKLLWSAFLLKAGIDIDSNGGLGVYPRDITSSSYTTTIMTIYLEHHHHHH | failed |
| MGHHHHHHENLYFQSHERLSEKKIKNLLTSKQQRQQYEIKQRSMLRHLAELRRHSRFRRLCTKPASSSMPASTSSVDRRTTRRSTSQTSLSPSNSSGYGSVFGCEEHDVDKIPSLNGFAKLKRRRSSCVGAPTPNSKRSKNNMGVIAKRPPKGEYVVERIECVEMD | failed |
| MGHHHHHHENLYFQSHINEQEREIEKLKRQMAEYGAIIKSLQFRQNSLEDTFIPDLTPKVEPSVNPTGCLLGSNAVHLMRDIKKECDYLGIPDPVPATKPTTQAQDDSQKKAKRSCFGRLFTGPFRRGTSAMKTADEYEKDDRLEELYAQLERDPDP | failed |
| MGHHHHHHSHCDSDCLWVGLAGPQILPPCRSIVRTLHQHKLGRASWPSVQQGLQQSFLHTLDSYRILQKAAPFDRRATSLAWHPTHPSTVAVGSKGGDIMLWNFGIKDKPTFIKGIGAGGSITGLKFNPLNTNQFYASSMEGTTRLQDFKGNILRVFASSDTINIWFCSLDVSASSRMVVTGDNVGNVILLNMDGKELWNLRMHKKKVTHVALNPCCDWFLATASVDQTVKIWDLRQVRGKASFLYSLPHRHPVNAACFSPDGARLLTTDQKSEIRVYSASQWDCPLGLIPHPHRHFQHLTPIKAAWHPRYNLIVVGRYPDPNFKSCTPYELRTIDVFDGNSGKMMCQLYDPESSGISSLNEFNPMGDTLASAMGYHILIWSQEEARTRK | failed |
| MGHHHHHHSHGHAAVIGWKDLAYAGVIDSGGVCENIIAIPNPGTEPLNVAAVLCEGLDVVVYKGPEISLSPTRARPLLGKLRQGTAALVMVGTKVSSPALSVDAEITDYVGIGAGSGRIRGVEMQVRAVSKTHGVRSGKVLISRP | failed |
| MGHHHHHHSHGQLVRGKVCEYSTDGAYIDIGGKAPAFLPKREAALHAVLDLEAHLPKDEELEFLVIRDQNEDGQVTVSLRA | failed |
| MGHHHHHHSHGSYANEISSSIIINRPAERLFDLWRKPETLPILMGHFASIEILNHTDSNWRINTPIGSLIEWQARIIDEKPGEYIHWRSLEGARVPNEGRLSFQPAASEAGTAVTLTIRYNPPGGLIGKKIGQMFDMFSRDMLTKTLYRFKKLAEDER | not failed |
| MGHHHHHHSHMALRDLCVVLLNGQHLEVKCDVESTVGAVFNAVTSFANLEELTYFGLAYMKSKEFFFLDSETR | failed |

From a protein production outcome set (Wang et al. 2014)
